What was measured:
[1] = tested on: antisera isolated from TCC^Nic4 immunized mice; test: competitive ELISA for specificity of nicotine binding by antisera
Protocol: FIG. 6 presents data showing specificity of nicotine binding by antisera isolated from TCC^Nic4 immunized mice determined by competitive ELISA for nicotine, cotinine, and acetylcholine.
Antibody affinity and the nicotine binding capacity of the anti-nicotine antibodies evoked in TCC^Nic4-immunized mice were examined. Mice were immunized with 2.5 μg TCC^Nic4 on days 0, 14, and 146, and antisera were obtained. Nicotine binding to antisera isolated from TCC^Nic4 immunized mice was determined by competitive ELISA for nicotine, cotinine, and acetylcholine.

[2] = tested on: mice; test: nicotine distribution in serum/plasma and brain after nicotine injection in immunized mice; assay type: in vivo
Protocol: FIGS. 9A-C show the levels of nicotine in sera and brains of mice (n=5/group) immunized with PBS, TCC^Nic4 with and without alum and GLA-SE adjuvants, or KLH conjugated to nicotine (KLH^Nic22) with and without alum and GLA-SE adjuvants. Immunized mice were injected with a dose of nicotine tartrate equivalent to the nicotine in 3 cigarettes (1.2 μg). Five minutes later the mice were sacrificed, tissues removed, and the amount of nicotine in (A) sera and (B) brain were measured by mass spectrometry. (C) The calculated percent inhibition of nicotine entry into the brain is shown.
FIGS. 10A-B show comparative antibody responses between TCC^Nic4 and KLH^Nic100. C57Bl/6 mice were immunized with each conjugate in the absence and presence of GLA-SE adjuvant. […]
To test antibody function, TCC^Nic4 or KLH^Nic22 (non-adjuvanted; +Alum; or +GLA-SE) immunized mice were injected with free nicotine equivalent to 3 cigarettes. […] Nicotine was extracted from the plasma and brain tissues and then quantified by LC/MS. The amounts of nicotine in plasma (ng/ml) and brain (ng/g) were determined. […] Data were analyzed using GraphPad Prism (San Diego, Calif.). Statistically significant differences between 2 groups were calculated by Student's 2-tailed t-test on log transformed data and between 3 or more groups by 1-factor analysis of variance (ANOVA) followed by post-hoc analysis. […]

[3] = tested on: C57BL/6 mice; test: nicotine-induced hypoactivity (locomotor activity, open field); assay type: in vivo; conditions: 10 daily 10 μg nicotine injections, 7 day rest, 10 μg challenge
Protocol: C57Bl/6 mice were immunized with TCC^Nic4 and KLH^Nic100 in the absence and presence of GLA-SE adjuvant. Immunized mice were sensitized to nicotine with 10 daily injections (10 μg). Following a 7 day rest period, mice were challenged with nicotine (10 μg), and locomoter activity was monitored using infrared beam-equipped open field chambers. The PBS-immunized group was not challenged with nicotine.
Furthermore, mice immunized with TCC^Nic4 and KLH^Nic100 with and without GLA-SE as described above were evaluated for nicotine-induced hypoactive behavior with nicotine challenges as described in Rosenberg et al. (2013, Hum. Gene Ther. 24:595-603). Immunized mice were sensitized with 10 daily injections of 10 μg of nicotine. After a 7 day rest period, the mice were then challenged with 10 μg of nicotine, and locomotor activity was monitored using infrared beam-equipped open field chambers. The mice immunized with PBS were not challenged with nicotine.

[4] = relative Kd of serum IgG by competitive ELISA; assay type: binding, mice
Protocol: FIGS. 7A-B illustrate antibody avidities of antisera from mice immunized with TCC conjugated to nicotine.
Relative Kd values of serum IgG were determined by competitive ELISA. Dilutions of antiserum were prepared and incubated with soluble nicotine (0.0001-100 μM). After equilibrium was achieved, binding to bovine serum albumin (BSA) conjugated to nicotine was measured. […] Each sample was assayed in triplicate wells along with standard control sera, and the mean midpoint and endpoint titers (+/−SEM) were determined.

[5] = tested on: C57BL/6 mice; test: anti-nicotine antibody titers by ELISA in immunized C57BL/6 mice; assay type: in vivo
Protocol: FIGS. 3A-B illustrate anti-nicotine antibody titers as measured by ELISA. C57Bl/6 mice (n=5/group) were immunized (days 0, 14, and 146) with 2.5 μg of the trimeric coiled-coil peptide vaccine comprising peptide monomers with 16 lysines conjugated to an average of 4 nicotines per monomer. Control groups were administered KLH-Nic22 or PBS. Vaccines were formulated with (A) Alum adjuvant or (B) GLA-SE adjuvant. Sera were collected at the indicated times and assayed for anti-nicotine antibodies by ELISA.
FIG. 5 illustrates titer to nicotine in mice (C57Bl/6 mice (n=5/group)) immunized with the indicated doses of TCC^Nic4 plus GLA-SE adjuvant. Day 35 sera were assayed for anti-nicotine antibodies by ELISA.
FIGS. 10A-B show comparative antibody responses between TCC^Nic4 and KLH^Nic100. C57Bl/6 mice were immunized with each conjugate in the absence and presence of GLA-SE adjuvant. (A) Serum was assayed for anti-nicotine antibody responses by ELISA. (B) Data showing serum sequestration of nicotine. Percent inhibition of nicotine entry into the brain is indicated.
Trimeric coiled coil structures comprising three peptide monomers having an amino acid sequence set forth in SEQ ID NO:13 were conjugated as described above with nicotine to provide constructs comprising an average of 0.6, 4, and 14 nicotine molecules per monomeric peptide. […] Sera were collected periodically for approximately 20 weeks after the primary immunization, and anti-nicotine antibody titers were determined by ELISA.
In the same experiment, groups of mice were immunized with three non-TCC nicotine carriers, FGK4.5^nic19 and IgG2^nic17 and KLH^nic22. […] Sera were collected and measured for anti-nicotine and anti-carrier antibody titers by ELISA using, respectively, nicotine conjugated BSA, non-conjugated trimeric coiled-coil peptide, and non-conjugated KLH, FGK4.5, and IgG2 carriers used in the respective vaccine composition. Each sample was assayed in triplicate wells along with standard control sera, and the mean midpoint and endpoint titers (+/−SEM) were determined. […]

[6] = serum nicotine binding capacity (inhibition RIA); conditions: serum of immunized mice
Protocol: Kd values were used to calculate total antibody concentrations according to the law of mass action equation: Kd=[Nic][Ig]/[Nic−Ig].
Plasma was assayed for nicotine binding capacity at various times following immunization. Plasma aliquots were spiked with increasing nicotine levels (0.0001-10 μM) (serum nicotine levels in heavy smokers is 100 ng/ml or 0.617 μM) and then subjected to inhibition RIA (with H^3-Nicotine as the tracer and non-radiolabeled nicotine as the inhibitor) to calculate the total nicotine binding IgG in serum (see, e.g., Moreno et al., 2010, Mol. Pharm. 7:431-41; Muller, 1983, Methods Enzymol. 92:589-601). Immobilized protein A was used to capture IgGs from the serum to separate them from free nicotine. Aliquots of both the protein A eluate and the serum supernatant were subjected to liquid scintillation counting to quantify the amount of tracer in each fraction.

Row | Molecule | binding by antibodies induced by TCC^Nic4 immunization ([1]; competitive ELISA) | IC50 relative to nicotine ([1]; competitor in competitive ELISA) [fold] | nicotine in sera and brain, immunogen compared with KLH^Nic22 ([2]; combined with either adjuvant (Alum or GLA-SE), 5 min after nicotine injection) | circulating nicotine prevented from entering the brain ([2]; plus GLA-SE adjuvant, nicotine dose equivalent to 3 cigarettes, 5 min) | specificity of antibodies induced by immunization ([1]; 2.5 μg on days 0, 14, 146) | hypoactivity behavior after nicotine challenge ([3]; non-adjuvanted vaccine) | prevention of nicotine sensitization and hypoactivity behavior ([3]; with GLA-SE adjuvant) | antibody affinity compared to KLH^Nic22 ([4]; in the absence of adjuvant) | antibody affinity relative to antibodies evoked by KLH^Nic22 ([4]; in the presence of GLA-SE adjuvant) | Kd ([4]; in the presence of GLA-SE adjuvant, read-out: affinity of the antibodies evoked by immunization (Kd)) [nM] | anti-nicotine antibody titer compared with KLH^Nic22 ([5]; 2.5 μg on days 0, 14, 146, FIG. 3) | anti-nicotine antibody titers ([5]; adjuvanted (Alum or GLA-SE), 2.5 μg on days 0, 14, 146, sera for approx. 20 weeks) | dose achieving the maximum anti-nicotine antibody response ([5]; adjuvanted with GLA-SE, doses 0.1, 0.5, 1, 2.5 μg, day 35 sera) [ng] | nicotine binding capacity compared with control KLH conjugate [6]
1 | CN1C(=O)CC[C@H]1c1cccnc1 [cotinine] | did not bind physiological concentrations | 1000 | – | – | – | – | – | – | – | – | – | – | – | –
2 | TCC^Nic4: trimeric coiled coil of three SEQ ID NO:13 monomers conjugated with average 4 nicotine 6-hexanoic acid per monomer (conjugate, also: trimer (trimeric coiled coil of three monomers), ~4 nicotine 6-hexanoic acid haptens per monomer (sites not given here)) KKIEKRIEKIEKRIKKIEKRIKKIEKRIKKIEKRIKKAKFVAAWTLKAAAYQNPTTYISVK | – | – | superior immunogen | greater than 90% | nicotine-specific | hypoactivity observed | appeared equivalent in preventing nicotine sensitization and subsequent hypoactivity behavior | higher affinity antibodies | an order of magnitude greater | ~1 | consistently greater | robust antibody titers | ≤ 100 | significantly larger
